Laboratory results reported in article PMC12753717.

How the values were obtained:
[1] = target: soluble envelope protein ectodomain of yellow fever virus strain 17D with C-terminal 3C site and TwinStrep tag (yellow fever virus strain 17D); test: SEC-MALS
[2] = target: soluble envelope protein ectodomain of yellow fever virus strain Asibi with C-terminal 3C site and TwinStrep tag (yellow fever virus strain Asibi); test: SEC-MALS

Substance | stoichiometry N [1] | stoichiometry N [2]
precursor peptide pr of yellow fever virus strain 17D | 1 | 
precursor peptide pr of yellow fever virus strain Asibi, canonical furin cleavage product (pr1, 9.95 kDa) |  | 1
